Patent US20230365658A1
Where “and” joins values, the source holds several entries; their conditions need not be identical. Equal values may be shown once.

Tests used:
[1] = target: COV2-RBD (rpk9) B.1.1.529 R346K (BA.1.1) (SARS-CoV-2)
[2] = target: SARS-CoV-2 spike (S) glycoprotein, D614G (SARS-CoV-2) (UniProt P0DTC2); experiment: cell-based or functional assay

Substance	EC50 [1]	normalized pseudoneutralization IC50 [2]
COV2-2130 (antibody)	4.13 µg/mL and 3.54 µg/mL	
rS2K146 (antibody)		0.00656 µg/mL
